In paper PMC6720452, “Structural Basis for Recruitment of DAPK1 to the KLHL20 E3 Ligase” (Structure(London, England:1993), 2019):

Assays:
FLAG-KLHL20 Kelch domain = test: Co-immunoprecipitation of KLHL20 and DAPK1 in HEK293T cells; type: cell-based, human; conditions: FLAG-KLHL20 Kelch domain and HA-DAPK1 full-length co-transfected, 40 hours after transfection, anti-FLAG IP, Western blot
From the text: (§1) To confirm the identified “LPDLV” motif as a regulatory site for DAPK1 interaction and degradation, we performed immunoprecipitation and cycloheximide (CHX) chase experiments in HEK293T cells. […] We then performed a CHX chase assay to compare the degradation of DAPK1 variants in the presence or absence of full-length KLHL20.
Figure 6 Mutations in the DAPK1 “LPDLV” Motif Impair DAPK1 Binding and Degradation by KLHL20 (A) Full-length DAPK1 variants and KLHL20 Kelch domain were co-transfected into HEK293T cells as indicated. FLAG-KLHL20 Kelch domain was immunoprecipitated (IP) with anti-FLAG antibody. DAPK1 WT was robustly co-purified with KLHL20, whereas DAPK1 mutant was only recovered at the background level of the beads alone. (B) DAPK1 variants were transfected into HEK293T cells with or without full-length KLHL20 as indicated. […] DAPK1 protein levels were detected by western blot and normalized to GAPDH. (C) Quantitation of (B). […]
HEK293T cells were cultured in high glucose Dulbecco’s Modified Eagle’s Medium (Sigma-Aldrich) with 5% Penicillin Streptomycin (ThermoFisher) and 10% Fetal Bovine Serum (Sigma-Aldrich) inside a 5% CO2 incubator at 37°C. […] Results were analyzed using Western blotting (Anti-Flag antibody, Sigma-Aldrich, F1804; Anti-HA antibody, Biolegend, 901501; Anti-Myc antibody, Cell signalling, 2040S).

full-length KLHL20 = test: Cycloheximide chase assay in HEK293T cells; type: cell-based, human; conditions: 100 μg/mL cycloheximide, 0-6h; for Half-life / degradation of DAPK1 on KLHL20 co-expression: with vs without full-length KLHL20, Western blot normalized to GAPDH
From the text: as §1
Figure 6 Mutations in the DAPK1 “LPDLV” Motif Impair DAPK1 Binding and Degradation by KLHL20 (A) Full-length DAPK1 variants and KLHL20 Kelch domain were co-transfected into HEK293T cells as indicated. FLAG-KLHL20 Kelch domain was immunoprecipitated (IP) with anti-FLAG antibody. DAPK1 WT was robustly co-purified with KLHL20, whereas DAPK1 mutant was only recovered at the background level of the beads alone. (B) DAPK1 variants were transfected into HEK293T cells with or without full-length KLHL20 as indicated. At 24 h post transfection, cells were incubated with 100 μg/mL cycloheximide (CHX) and harvested at different time points as indicated. DAPK1 protein levels were detected by western blot and normalized to GAPDH. (C) Quantitation of (B).
For structural and biophysical studies, the Kelch domains of human KLHL20 (Uniprot Q9Y2M5 isoform 1, M303-E605) and KLHL3 (Uniprot Q9UH77 isoform 1, residues S298–L587) were cloned using ligation-independent cloning into the bacterial expression vector pNIC28-Bsa4 (GenBank accession number EF198106), which provides for an N-terminal hexahistidine tag and TEV cleavage site. For cellular assays, full length DAPK1 was cloned into pcDNA3.1(+) providing an N-terminal HA tag. The mutant DAPK1 (1336-‘LPDLV’ motif mutated to ‘LPAAV’) was created in the same vector by site directed mutagenesis. […]
HEK293T cells were cultured as described above until 60% confluency. […] Results were analyzed using Western blotting with corresponding antibodies. GAPDH level in each sample was also detected for control (anti-GAPDH antibody; Thermo Fisher, MA5-15738). Western blot band intensities were quantified using Image Studio Lite Ver 5.2 and normalized for the GADPH control.

Molecule | Recovery of DAPK1 in KLHL20 immunoprecipitation (FLAG-KLHL20 Kelch domain) | Half-life / degradation of DAPK1 on KLHL20 co-expression (full-length KLHL20) | Half-life of DAPK1 mutant compared with DAPK1 WT (full-length KLHL20; with or without full-length KLHL20, Western blot normalized to GAPDH)
DAPK1 WT: full-length HA-DAPK1 wild-type (protein, left off: HA, N-terminal, kept, full-length HA-DAPK1 wild-type) MTVFRQENVDDYYDTGEELGSGQFAVVKKCREKSTGLQYAAKFIKKRRTKSSRRGVSREDIEREVSILKEIQHPNVITLHEVYENKTDVILILELVAGGELFDFLAEKESLTEEEATEFLKQILNGVYYLHSLQIAHFDLKPENIMLLDRNVPKPRIKIIDFGLAHKIDFGNEFKNIFGTPEFVAPEIVNYEPLGLEADMWSIGVITYILLSGASPFLGDTKQETLANVSAVNYEFEDEYFSNTSALAKDFIRRLLVKDPKKRMTIQDSLQHPWIKPKDTQQALSRKASAVNMEKFKKFAARKKWKQSVRLISLCQRLSRSFLSRSNMSVARSDDTLDEEDSFVMKAIIHAINDDNVPGLQHLLGSLSNYDVNQPNKHGTPPLLIAAGCGNIQILQLLIKRGSRIDVQDKGGSNAVYWAARHGHVDTLKFLSENKCPLDVKDKSGEMALHVAARYGHADVAQLLCSFGSNPNIQDKEEETPLHCAAWHGYYSVAKALCEAGCNVNIKNREGETPLLTASARGYHDIVECLAEHGADLNACDKDGHIALHLAVRRCQMEVIKTLLSQGCFVDYQDRHGNTPLHVACKDGNMPIVVALCEANCNLDISNKYGRTPLHLAANNGILDVVRYLCLMGASVEALTTDGKTAEDLARSEQHEHVAGLLARLRKDTHRGLFIQQLRPTQNLQPRIKLKLFGHSGSGKTTLVESLKCGLLRSFFRRRRPRLSSTNSSRFPPSPLASKPTVSVSINNLYPGCENVSVRSRSMMFEPGLTKGMLEVFVAPTHHPHCSADDQSTKAIDIQNAYLNGVGDFSVWEFSGNPVYFCCYDYFAANDPTSIHVVVFSLEEPYEIQLNQVIFWLSFLKSLVPVEEPIAFGGKLKNPLQVVLVATHADIMNVPRPAGGEFGYDKDTSLLKEIRNRFGNDLHISNKLFVLDAGASGSKDMKVLRNHLQEIRSQIVSVCPPMTHLCEKIISTLPSWRKLNGPNQLMSLQQFVYDVQDQLNPLASEEDLRRIAQQLHSTGEINIMQSETVQDVLLLDPRWLCTNVLGKLLSVETPRALHHYRGRYTVEDIQRLVPDSDVEELLQILDAMDICARDLSSGTMVDVPALIKTDNLHRSWADEEDEVMVYGGVRIVPVEHLTPFPCGIFHKVQVNLCRWIHQQSTEGDADIRLWVNGCKLANRGAELLVLLVNHGQGIEVQVRGLETEKIKCCLLLDSVCSTIENVMATTLPGLLTVKHYLSPQQLREHHEPVMIYQPRDFFRAQTLKETSLTNTMGGYKESFSSIMCFGCHDVYSQASLGMDIHASDLNLLTRRKLSRLLDPPDPLGKDWCLLAMNLGLPDLVAKYNTSNGAPKDFLPSPLHALLREWTTYPESTVGTLMSKLRELGRRDAADFLLKASSVFKINLDGNGQEAYASSCNSGTSYNSISSVVSR | robustly bound to KLHL20 | striking reduction in the half-life | 
DAPK1 mutant: full-length DAPK1 mutant in which the critical 1,336-“LPDLV” motif was mutated to “LPAAV” (protein, left off: HA, N-terminal, kept) MTVFRQENVDDYYDTGEELGSGQFAVVKKCREKSTGLQYAAKFIKKRRTKSSRRGVSREDIEREVSILKEIQHPNVITLHEVYENKTDVILILELVAGGELFDFLAEKESLTEEEATEFLKQILNGVYYLHSLQIAHFDLKPENIMLLDRNVPKPRIKIIDFGLAHKIDFGNEFKNIFGTPEFVAPEIVNYEPLGLEADMWSIGVITYILLSGASPFLGDTKQETLANVSAVNYEFEDEYFSNTSALAKDFIRRLLVKDPKKRMTIQDSLQHPWIKPKDTQQALSRKASAVNMEKFKKFAARKKWKQSVRLISLCQRLSRSFLSRSNMSVARSDDTLDEEDSFVMKAIIHAINDDNVPGLQHLLGSLSNYDVNQPNKHGTPPLLIAAGCGNIQILQLLIKRGSRIDVQDKGGSNAVYWAARHGHVDTLKFLSENKCPLDVKDKSGEMALHVAARYGHADVAQLLCSFGSNPNIQDKEEETPLHCAAWHGYYSVAKALCEAGCNVNIKNREGETPLLTASARGYHDIVECLAEHGADLNACDKDGHIALHLAVRRCQMEVIKTLLSQGCFVDYQDRHGNTPLHVACKDGNMPIVVALCEANCNLDISNKYGRTPLHLAANNGILDVVRYLCLMGASVEALTTDGKTAEDLARSEQHEHVAGLLARLRKDTHRGLFIQQLRPTQNLQPRIKLKLFGHSGSGKTTLVESLKCGLLRSFFRRRRPRLSSTNSSRFPPSPLASKPTVSVSINNLYPGCENVSVRSRSMMFEPGLTKGMLEVFVAPTHHPHCSADDQSTKAIDIQNAYLNGVGDFSVWEFSGNPVYFCCYDYFAANDPTSIHVVVFSLEEPYEIQLNQVIFWLSFLKSLVPVEEPIAFGGKLKNPLQVVLVATHADIMNVPRPAGGEFGYDKDTSLLKEIRNRFGNDLHISNKLFVLDAGASGSKDMKVLRNHLQEIRSQIVSVCPPMTHLCEKIISTLPSWRKLNGPNQLMSLQQFVYDVQDQLNPLASEEDLRRIAQQLHSTGEINIMQSETVQDVLLLDPRWLCTNVLGKLLSVETPRALHHYRGRYTVEDIQRLVPDSDVEELLQILDAMDICARDLSSGTMVDVPALIKTDNLHRSWADEEDEVMVYGGVRIVPVEHLTPFPCGIFHKVQVNLCRWIHQQSTEGDADIRLWVNGCKLANRGAELLVLLVNHGQGIEVQVRGLETEKIKCCLLLDSVCSTIENVMATTLPGLLTVKHYLSPQQLREHHEPVMIYQPRDFFRAQTLKETSLTNTMGGYKESFSSIMCFGCHDVYSQASLGMDIHASDLNLLTRRKLSRLLDPPDPLGKDWCLLAMNLGLPAAVAKYNTSNGAPKDFLPSPLHALLREWTTYPESTVGTLMSKLRELGRRDAADFLLKASSVFKINLDGNGQEAYASSCNSGTSYNSISSVVSR | only recovered at a low background level | strikingly resistant to KLHL20 co-expression | exceeded that of DAPK1 WT under any of the conditions above
